Reference: article PMC3176292

T1: Flag-Smad4, full length, Q13485
T1 chain: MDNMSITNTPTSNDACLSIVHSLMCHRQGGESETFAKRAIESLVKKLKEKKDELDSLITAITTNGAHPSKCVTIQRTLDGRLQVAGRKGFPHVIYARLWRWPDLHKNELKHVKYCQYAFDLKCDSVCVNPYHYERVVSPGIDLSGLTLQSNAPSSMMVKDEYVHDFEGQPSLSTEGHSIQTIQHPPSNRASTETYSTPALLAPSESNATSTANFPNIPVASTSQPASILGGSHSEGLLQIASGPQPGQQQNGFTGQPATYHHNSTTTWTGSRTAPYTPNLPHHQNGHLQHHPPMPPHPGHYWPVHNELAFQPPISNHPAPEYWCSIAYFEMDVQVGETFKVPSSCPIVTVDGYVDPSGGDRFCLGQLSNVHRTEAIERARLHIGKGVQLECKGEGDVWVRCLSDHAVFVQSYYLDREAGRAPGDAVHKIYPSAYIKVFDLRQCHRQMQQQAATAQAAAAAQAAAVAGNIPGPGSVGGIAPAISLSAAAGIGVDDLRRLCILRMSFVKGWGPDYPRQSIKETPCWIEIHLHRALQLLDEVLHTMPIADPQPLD

B1: Renilla luciferase-Smad3 wild type, co-expressed with constitutively active Alk5 (phosphorylated Smad3), P84022 1-425 (natural protein)
chain: MSSILPFTPPIVKRLLGWKKGEQNGQEEKWCEKAVKSLVKKLKKTGQLDELEKAITTQNVNTKCITIPRSLDGRLQVSHRKGLPHVIYCRLWRWPDLHSHHELRAMELCEFAFNMKKDEVCVNPYHYQRVETPVLPPVLVPRHTEIPAEFPPLDDYSHSIPENTNFPAGIEPQSNIPETPPPGYLSEDGETSDHQMNHSMDAGSPNLSPNPMSPAHNNLDLQPVTYCEPAFWCSISYYELNQRVGETFHASQPSMTVDGFTDPSNSERFCLGLLSNVNRNAAVELTRRHIGRGVRLYYIGGEVFAECLSDSAIFVQSPNCNQRYGWHPATVCKIPPGCNLKIFNNQEFAALLAQSVNQGFEAVYQLTRMCTIRMSFVKGWGAEYRRQTVTSTPCWIELHLNGPLQWLDKVLTQMGSPSIRCSSVS
modifications: here or on the partner: phosphorylated by the co-expressed activated Alk5 kinase (sites not given)
B2: Renilla luciferase-Smad3 wild type, without Alk5 (not phosphorylated), P84022 1-425 (natural protein)
chain: B1 chain

Key:
[1] = molecular target: T1, Flag-Smad4, full length, Q13485; test: co-IP; LUMIER: Renilla luciferase-Smad3 and Flag-tagged partner co-expressed with constitutively active Alk5 in HEK-293; Flag protein captured from cleared lysate (TNE: 10 mM Tris-HCl pH 7.8, 150 mM NaCl, 1 mM EDTA, 1% Igepal CA-630) on anti-Flag 96-well plates, 2 h at 4 °C; co-precipitated Renilla luciferase activity, TrxGA background subtracted, percent of wild-type Smad3; details: remark: other sources report otherwise
[2] = molecular target: T1, Flag-Smad4, full length, Q13485; test: co-IP; LUMIER as a1 but without co-expression of the activated Alk5 kinase (Smad3 not phosphorylated); percent of phosphorylated wild-type Smad3; details: remark: other sources report otherwise

Row | Binder | percent binding relative to wild-type Smad3 [1] [%] | percent binding relative to wild-type Smad3 [2] [%]
1 | B1 | 100 | –
2 | B2 | – | 6
